Measurements: US20210070875A1
Several values for one entry are separate records, joined by “and”; a condition that tells them apart may be missing. Equal values may be shown once. Blank lines part the entries; values can stand above or below the substance they belong to.

Experiments:
human C5aR (human) [1] = molecular target: human C5aR (human) (UniProt P21730); assay: FACS, CHOK1-hC5aR cells, 0.6660 nM antibody
human C5aR (human) [2] = molecular target: human C5aR (human) (UniProt P21730); assay: FACS, CHOK1-hC5aR cells, 66.6000 nM antibody
human C5aR (human) [3] = molecular target: human C5aR (human) (UniProt P21730); assay: FACS, CHOK1-hC5aR cells, 0.0067 nM antibody
human C5aR (human) [4] = molecular target: human C5aR (human) (UniProt P21730); assay: FACS, CHOK1-hC5aR cells, 6.6600 nM antibody
human C5aR (human) [5] = molecular target: human C5aR (human) (UniProt P21730); assay: cell-based or functional assay
human C5aR (human) [6] = molecular target: human C5aR (human) (UniProt P21730); assay: FACS, CHOK1-hC5aR cells, 0.0000 nM antibody (background)
human C5aR (human) [7] = molecular target: human C5aR (human) (UniProt P21730); assay: FACS, CHOK1-hC5aR cells, 666.0000 nM antibody
human C5aR (human) [8] = molecular target: human C5aR (human) (UniProt P21730); assay: FACS, CHOK1-hC5aR cells, 0.0007 nM antibody
human C5aR (human) [9] = molecular target: human C5aR (human) (UniProt P21730); assay: FACS, CHOK1-hC5aR cells, 0.0666 nM antibody
C5aR polypeptide-03 = C5aR polypeptide-03 (UniProt P21730); assay: ELISA, polypeptide coated at 1.0 µg/mL
C5aR polypeptide-05 = C5aR polypeptide-05 (UniProt P21730); assay: ELISA, polypeptide coated at 1.0 µg/mL
C5aR polypeptide-04 = C5aR polypeptide-04 (UniProt P21730); assay: ELISA, polypeptide coated at 1.0 µg/mL
[10] = molecular target: C5aR extracellular N-terminus polypeptide (UniProt P21730); assay: ELISA, polypeptide coated at 1.0 µg/mL

human C5aR (human), sequence (P21730 other isoform, or with tags, fused parts or gaps): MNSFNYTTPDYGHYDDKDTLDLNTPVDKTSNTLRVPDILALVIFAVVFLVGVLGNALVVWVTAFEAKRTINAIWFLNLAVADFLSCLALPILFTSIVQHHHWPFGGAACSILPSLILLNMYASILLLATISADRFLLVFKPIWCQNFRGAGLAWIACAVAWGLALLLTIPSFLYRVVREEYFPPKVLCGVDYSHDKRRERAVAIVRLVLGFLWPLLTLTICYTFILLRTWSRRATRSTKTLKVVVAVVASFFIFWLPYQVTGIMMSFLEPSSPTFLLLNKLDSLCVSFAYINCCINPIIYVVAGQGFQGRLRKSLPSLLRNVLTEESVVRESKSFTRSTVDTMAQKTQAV

MFI (human C5aR (human) [1]): 2.96 MFI and 1.99 MFI
MFI (human C5aR (human) [2]): 3.18 MFI and 2.14 MFI
MFI (human C5aR (human) [3]): 2.79 MFI and 2.01 MFI
MFI (human C5aR (human) [4]): 2.88 MFI and 2.01 MFI
C5a-induced human neutrophil migration, Celltiter-Glo fluorescence intensity value, Parallel sample 1 (fluorescence intensity) (human C5aR (human) [5]): 5170
C5a-induced human neutrophil migration, Celltiter-Glo fluorescence intensity value, Parallel sample 2 (fluorescence intensity) (human C5aR (human) [5]): 5000
C5a-induced human neutrophil migration, Celltiter-Glo fluorescence intensity value, Parallel sample 3 (fluorescence intensity) (human C5aR (human) [5]): 2580
C5a-induced human neutrophil migration, Celltiter-Glo fluorescence intensity value, Parallel sample 4 (fluorescence intensity) (human C5aR (human) [5]): 2640
C5a-mediated calcium flow signal, FLIPR, antibody 0.0 µg/mL (human C5aR (human) [5]): 1870 MFI and 1690 MFI
C5a-mediated calcium flow signal, FLIPR, antibody 0.01 µg/mL (human C5aR (human) [5]): 2110 MFI and 1890 MFI
C5a-mediated calcium flow signal, FLIPR, antibody 0.1 µg/mL (human C5aR (human) [5]): 2080 MFI and 1740 MFI
C5a-mediated calcium flow signal, FLIPR, antibody 0.4 µg/mL (human C5aR (human) [5]): 1920 MFI and 1610 MFI
C5a-mediated calcium flow signal, FLIPR, antibody 1.1 µg/mL (human C5aR (human) [5]): 1830 MFI and 1790 MFI
C5a-mediated calcium flow signal, FLIPR, antibody 3.3 µg/mL (human C5aR (human) [5]): 1870 MFI and 1840 MFI
C5a-mediated calcium flow signal, FLIPR, antibody 10.0 µg/mL (human C5aR (human) [5]): 1730 MFI and 1850 MFI
C5a-mediated calcium flow signal, FLIPR, antibody 30.0 µg/mL (human C5aR (human) [5]): 1590 MFI
MFI (human C5aR (human) [6]): 2.69 MFI and 1.99 MFI
MFI (human C5aR (human) [7]): 3.22 MFI and 2.21 MFI
MFI (human C5aR (human) [8]): 2.78 MFI and 2.03 MFI
MFI (human C5aR (human) [9]): 2.81 MFI and 2 MFI
Substance: mIgG control (murine IgG) (antibody)

OD450 nm (C5aR polypeptide-03): 0.07 OD450 nm
OD450 nm (C5aR polypeptide-05): 0.07 OD450 nm
OD450 nm (C5aR polypeptide-04): 0.06 OD450 nm
OD450 nm [10]: 0.07 OD450 nm
Substance: IgG control (human IgG) (antibody)
